From PMC7375243, “Structural Basis of Human Helicase DDX21 in RNA Binding, Unwinding, and Antiviral Signal Activation” (Advanced Science, 2020)

Experiments:
[1] = biological target: T1, DDX21 helicase core (D1D2, DDX21-delNC) (human, UniProt Q9NR30 188-563); assay: crystal structure; AMPPNP, Mg2+; 2.24 A, 7 nt visible; MST: 50 mM Tris pH 7.5, 50 mM KCl, 2 mM MgCl2, 1 mM TCEP, 0.01% NP-40, 0.05 mg/mL BSA, 2 mM AMPPNP, 50 nM FAM-RNA; temperature not given; crosslinking buffer not in material; conditions: protein: recombinant; tags: N-terminal His-SUMO, removed by ULP1; single strand
T1 sequence: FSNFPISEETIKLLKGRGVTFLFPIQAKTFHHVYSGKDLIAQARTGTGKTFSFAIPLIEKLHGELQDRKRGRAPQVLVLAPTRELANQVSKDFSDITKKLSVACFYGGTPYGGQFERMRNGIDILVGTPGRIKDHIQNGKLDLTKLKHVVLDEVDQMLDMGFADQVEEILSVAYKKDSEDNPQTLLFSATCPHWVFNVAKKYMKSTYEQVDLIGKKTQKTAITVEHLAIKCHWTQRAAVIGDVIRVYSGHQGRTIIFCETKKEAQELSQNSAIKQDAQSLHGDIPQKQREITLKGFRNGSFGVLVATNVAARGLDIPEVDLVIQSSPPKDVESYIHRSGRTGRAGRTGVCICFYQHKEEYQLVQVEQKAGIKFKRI

DDX21 full-length = biological target: T2, DDX21 full-length (human, UniProt Q9NR30 1-783); assay: UV crosslinking/MST/SEC (method for this pair not specified); MST: 50 mM Tris pH 7.5, 50 mM KCl, 2 mM MgCl2, 1 mM TCEP, 0.01% NP-40, 0.05 mg/mL BSA, 2 mM AMPPNP, 50 nM FAM-RNA; temperature not given; crosslinking buffer not in material; conditions: protein: recombinant; tags: N-terminal His-SUMO, removed by ULP1; chain copies: 3; single strand
T2 sequence: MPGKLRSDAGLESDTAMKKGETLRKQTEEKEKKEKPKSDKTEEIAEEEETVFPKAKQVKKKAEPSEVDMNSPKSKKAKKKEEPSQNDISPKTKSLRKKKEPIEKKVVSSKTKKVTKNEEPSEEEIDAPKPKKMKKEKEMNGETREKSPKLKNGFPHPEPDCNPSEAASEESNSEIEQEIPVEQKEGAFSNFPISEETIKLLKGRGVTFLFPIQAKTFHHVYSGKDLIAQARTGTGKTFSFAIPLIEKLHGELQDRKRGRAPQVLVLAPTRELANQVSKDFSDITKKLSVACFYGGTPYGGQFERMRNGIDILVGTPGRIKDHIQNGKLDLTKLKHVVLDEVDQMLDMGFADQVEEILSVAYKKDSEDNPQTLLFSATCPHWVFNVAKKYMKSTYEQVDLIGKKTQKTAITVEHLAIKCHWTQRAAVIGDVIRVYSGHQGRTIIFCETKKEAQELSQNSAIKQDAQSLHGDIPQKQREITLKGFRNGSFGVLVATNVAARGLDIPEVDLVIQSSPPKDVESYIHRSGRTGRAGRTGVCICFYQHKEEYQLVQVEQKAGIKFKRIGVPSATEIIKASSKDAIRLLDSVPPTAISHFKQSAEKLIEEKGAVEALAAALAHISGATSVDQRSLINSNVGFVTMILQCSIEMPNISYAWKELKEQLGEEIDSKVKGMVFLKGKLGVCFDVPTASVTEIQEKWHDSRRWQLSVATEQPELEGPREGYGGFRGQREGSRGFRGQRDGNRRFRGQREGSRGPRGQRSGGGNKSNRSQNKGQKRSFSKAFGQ

[2] = biological target: the molecule itself; assay: SEC; gel filtration of DDX21 del-C (1-710) and del-NC (188-710), data not shown; final SEC buffer of del-C with 200 mM NaCl
[3] = biological target: the molecule itself; assay: SAXS; beamline BL19U2, 1-3 mg/mL protein; 20 mM Tris-HCl pH 7.5, 1 mM TCEP, 100 mM NaCl for DDX21 (188-563), 500 mM NaCl for DDX21 (1-783); ab initio envelopes (GASBOR)

B1: U15 (ssRNA)
RNA: UUUUUUUUUUUUUUU
- binding result [1]: binds
- binding result (DDX21 full-length): binds

B2: DDX21 del-C (1-710) (domain or fragment, human, UniProt Q9NR30-1 1-710, looked up)
chain: MPGKLRSDAGLESDTAMKKGETLRKQTEEKEKKEKPKSDKTEEIAEEEETVFPKAKQVKKKAEPSEVDMNSPKSKKAKKKEEPSQNDISPKTKSLRKKKEPIEKKVVSSKTKKVTKNEEPSEEEIDAPKPKKMKKEKEMNGETREKSPKLKNGFPHPEPDCNPSEAASEESNSEIEQEIPVEQKEGAFSNFPISEETIKLLKGRGVTFLFPIQAKTFHHVYSGKDLIAQARTGTGKTFSFAIPLIEKLHGELQDRKRGRAPQVLVLAPTRELANQVSKDFSDITKKLSVACFYGGTPYGGQFERMRNGIDILVGTPGRIKDHIQNGKLDLTKLKHVVLDEVDQMLDMGFADQVEEILSVAYKKDSEDNPQTLLFSATCPHWVFNVAKKYMKSTYEQVDLIGKKTQKTAITVEHLAIKCHWTQRAAVIGDVIRVYSGHQGRTIIFCETKKEAQELSQNSAIKQDAQSLHGDIPQKQREITLKGFRNGSFGVLVATNVAARGLDIPEVDLVIQSSPPKDVESYIHRSGRTGRAGRTGVCICFYQHKEEYQLVQVEQKAGIKFKRIGVPSATEIIKASSKDAIRLLDSVPPTAISHFKQSAEKLIEEKGAVEALAAALAHISGATSVDQRSLINSNVGFVTMILQCSIEMPNISYAWKELKEQLGEEIDSKVKGMVFLKGKLGVCFDVPTASVTEIQEKWHDSRRWQLSVATE
notes: human DDX21, residues 1-710; source: E. coli BL21-CodonPlus (DE3)-RIL, purified (Ni-NTA, ULP1 cleavage, Ni-NTA, Superdex 200); not shown: His-sumo, N-terminal, cleaved
- stoichiometry N [2]: 5

B3: DDX21 del-NC (188-710) (domain or fragment, human, UniProt Q9NR30-1 188-710, looked up)
chain: FSNFPISEETIKLLKGRGVTFLFPIQAKTFHHVYSGKDLIAQARTGTGKTFSFAIPLIEKLHGELQDRKRGRAPQVLVLAPTRELANQVSKDFSDITKKLSVACFYGGTPYGGQFERMRNGIDILVGTPGRIKDHIQNGKLDLTKLKHVVLDEVDQMLDMGFADQVEEILSVAYKKDSEDNPQTLLFSATCPHWVFNVAKKYMKSTYEQVDLIGKKTQKTAITVEHLAIKCHWTQRAAVIGDVIRVYSGHQGRTIIFCETKKEAQELSQNSAIKQDAQSLHGDIPQKQREITLKGFRNGSFGVLVATNVAARGLDIPEVDLVIQSSPPKDVESYIHRSGRTGRAGRTGVCICFYQHKEEYQLVQVEQKAGIKFKRIGVPSATEIIKASSKDAIRLLDSVPPTAISHFKQSAEKLIEEKGAVEALAAALAHISGATSVDQRSLINSNVGFVTMILQCSIEMPNISYAWKELKEQLGEEIDSKVKGMVFLKGKLGVCFDVPTASVTEIQEKWHDSRRWQLSVATE
notes: human DDX21, residues 188-710
- stoichiometry N [2]: 2

B4: full-length DDX21 (1-783) (enzyme, human, UniProt Q9NR30-1 1-783, looked up)
chain: T2 sequence
notes: human DDX21, residues 1-783, codon-optimised synthetic gene; The text says it might be a trimer (SAXS, gel filtration); also called WT DDX21; RNA helicase DDX21; source: E. coli BL21-CodonPlus (DE3)-RIL, purified (Ni-NTA, ULP1 cleavage, Ni-NTA, Superdex 200); not shown: His-sumo, N-terminal, cleaved
- stoichiometry N [3]: 3
